Source: patent publication CN114437205A

Biological target: SARS S-his (SARS)

B1: 抗体CT150 (antibody, V domains shown)
VH: QEQLVESGGGVVQPGRSLRLSCAASGFTFSSYAMHWVRQAPGEGLEWVALISYDGDNKYYADSVKGRFTISRDNSKTTLFLQMNSLRAEDTAVYYCARDRGSYFYGVDVWGQGATVTVSS
VL: DIQLTQSPSFLSASVGDRVTITCRASQDINSYLAWYQQKPGKAPKLLIYAASTLQSGVPSRFSGSGSGTEFTLTISSLQPEDFATYYCQQLNSYPIFTFGPGTKVDIK
  EC50: 0.129 µg/mL
